The values below come from US20030091584A1 (AstraZeneca / MedImmune, published 2003).

Experiment [1] concerns the target T1, RSV F glycoprotein (NUF4) (respiratory syncytial virus).
T1 chain 1: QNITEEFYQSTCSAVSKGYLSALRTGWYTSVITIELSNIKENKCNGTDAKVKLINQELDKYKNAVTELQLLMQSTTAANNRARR
T1 chain 2: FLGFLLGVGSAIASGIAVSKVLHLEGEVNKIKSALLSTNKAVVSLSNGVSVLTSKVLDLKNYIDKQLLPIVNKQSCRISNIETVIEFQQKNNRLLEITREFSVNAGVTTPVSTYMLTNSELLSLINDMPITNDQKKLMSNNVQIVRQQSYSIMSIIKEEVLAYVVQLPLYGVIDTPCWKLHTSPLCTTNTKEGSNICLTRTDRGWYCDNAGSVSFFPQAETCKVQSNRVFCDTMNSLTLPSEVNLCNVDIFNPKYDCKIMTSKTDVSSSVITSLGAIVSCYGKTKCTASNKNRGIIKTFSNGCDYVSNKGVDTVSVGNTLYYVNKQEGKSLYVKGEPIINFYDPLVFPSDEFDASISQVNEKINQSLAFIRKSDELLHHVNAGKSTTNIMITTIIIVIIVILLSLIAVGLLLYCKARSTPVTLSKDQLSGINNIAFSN
Description: BIAcore, mAb vs NUF4 (1:1).

For experiment [2], the target named is T2, F protein of RSV A/Long MARM with K272T (respiratory syncytial virus strain …, UniProt P12568 26-574).
T2 construct: whole, on cells; also called MARM B7; MARM B10
Description: IFA on MARM-infected HEp-2 cells.

The target in experiment [3] is T3, F protein of RSV A/Long MARM with K272M (respiratory syncytial virus strain …, UniProt P12568 26-574).
T3 construct: whole, on cells; Seven independent isolates with the same change are kept as one molecule; also called MARM B2; MARM B3
In words: IFA on MARM-infected HEp-2 cells.

Experiment [4] concerns the target T4, F protein of RSV A/Long MARM with K272N (respiratory syncytial virus strain …, UniProt P12568 26-574).
T4 construct: whole, on cells; also called MARM B1
Description: IFA on MARM-infected HEp-2 cells.

Experiment [5] deals with T5, F protein of RSV A/Long MARM with K272Q (respiratory syncytial virus strain …, UniProt P12568 26-574).
T5 construct: whole, on cells; also called MARM B9; B9
Description: IFA on MARM-infected HEp-2 cells.

The target in experiment [6] is T6, F protein of RSV MARM with K272Q, N262K (respiratory syncytial virus strain …, UniProt P12568 26-574).
T6 construct: whole, on cells; also called MARM #13; MARM 13
Description: IFA on MARM-infected HEp-2 cells.

In experiment [7] the target is T1, RSV F glycoprotein (NUF4). Description: BIAcore, mAb vs NUF4 (2:1).
The target of experiment [8] is T7, F protein of RSV A/Long MARM with K272E, N276Y (respiratory syncytial virus strain …, UniProt P12568 26-574).
T7 construct: whole, on cells; also called MARM #10; MARM 10
Description: IFA on MARM-infected HEp-2 cells.

Experiment [9] addresses T8, F protein of RSV A/Long MARM with K272E (respiratory syncytial virus strain …, UniProt P12568 26-574).
T8 construct: whole, on cells; also called MARM #6; MARM #9
In words: IFA on MARM-infected HEp-2 cells.

Experiment [10] addresses T9, F protein of wild type RSV A/Long (respiratory syncytial virus strain …, UniProt P12568 26-574). In words: cell-based or functional assay.
In experiment [11] the target is T10, Bac-F.
T10 construct: Construct and strain not described
Description: BIAcore, mAb vs Bac-F (1:1).

For experiment [12], the target named is T9, F protein of wild type RSV A/Long. In words: cell-based or functional assay. This is another data set of the same source.

T9 sequence (P12568 26-574): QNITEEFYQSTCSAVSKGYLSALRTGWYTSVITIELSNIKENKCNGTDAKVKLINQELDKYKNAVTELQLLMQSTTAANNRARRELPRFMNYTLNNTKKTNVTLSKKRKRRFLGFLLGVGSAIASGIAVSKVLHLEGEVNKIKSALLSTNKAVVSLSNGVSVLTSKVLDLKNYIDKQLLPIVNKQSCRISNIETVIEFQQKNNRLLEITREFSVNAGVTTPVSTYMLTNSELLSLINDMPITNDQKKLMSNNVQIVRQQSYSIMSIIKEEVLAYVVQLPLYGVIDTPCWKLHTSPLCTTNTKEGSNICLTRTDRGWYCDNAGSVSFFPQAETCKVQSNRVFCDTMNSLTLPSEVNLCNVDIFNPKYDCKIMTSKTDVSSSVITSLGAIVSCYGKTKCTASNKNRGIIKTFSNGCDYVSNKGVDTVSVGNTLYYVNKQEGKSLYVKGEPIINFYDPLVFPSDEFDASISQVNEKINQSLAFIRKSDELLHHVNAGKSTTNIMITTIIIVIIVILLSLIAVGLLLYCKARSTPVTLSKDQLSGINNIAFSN

B1: SYNAGIS® (monoclonal antibody) (antibody, V domains shown)
VH: QVTLRESGPALVKPTQTLTLTCTFSGFSLSTSGMSVGWIRQPPGKALEWLADIWWDDKKDYNPSLKSRLTISKDTSKNQVVLKVTNMDPADTATYYCARSMITNWYFDVWGAGTTVTVSS
VL: DIQMTQSPSTLSASVGDRVTITCKCQLSVGYMHWYQQKPGKAPKLLIYDTSKLASGVPSRFSGSGSGTEFTLTISSLQPDDFATYYCFQGSGYPFTFGGGTKLEIK
notes: also called SYNAGIS ®/SYNAGIS ® (HC/LC)
Consider B1, for which the Kd in [1] stood at 8.7 nM; in experiment [7], 312 nM; in experiment [11] it was 3.9 nM. Besides, the binding result in experiment [2], in [3], in experiment [4], in experiment [5], in experiment [6] and in [8] was “no binding (tested: 250 ng/ml)” each time. Besides, the binding result in experiment [9] was “no binding (tested: 250 ng/ml)”. The “Mean IC50 (Control), RSV microneutralization” value in experiment [10] was determined as 0.535 µg/mL. Further, the “Mean IC50 (Curve), RSV microneutralization” value in experiment [10] is 0.453 µg/mL. In addition, in experiment [12], the “EC50 (nM), in vitro microneutralization of RSV Long” value is 3.57 nM.
